Results reported in patent publication US20240059799A1 (Pfizer, published 2024).
Substitutions are numbered along the chain they refer to.

T1: recombinant human TL1A (human, UniProt O95150 71-251)
T1 chain: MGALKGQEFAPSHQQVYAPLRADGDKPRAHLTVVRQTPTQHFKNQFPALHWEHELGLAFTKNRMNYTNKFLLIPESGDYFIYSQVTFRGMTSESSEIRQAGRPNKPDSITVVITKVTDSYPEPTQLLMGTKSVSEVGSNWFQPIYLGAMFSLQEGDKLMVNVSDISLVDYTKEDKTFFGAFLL

T2: recombinant human TL1A (human, UniProt O95150 71-251)
T2 construct: homotrimer; biotinylated for SPR capture; the ELISA paragraphs say only 'recombinant TL1A'; also called TNFSF15
T2 chain: T1 chain

B1: TL1A-0289 (antibody, human IgG1, kappa, V domains shown)
VH: QVQLVQSGAEVKKPGASVKVSCKASGYDFTYYGVSWVRQAPGQGLEWMGWISTYNTGTHYAPSLQGRVTMTTDTSTSTAYMELRSLRSDDTAVYYCARESYYGSGAHRGGMDVWGQGTTVTVSS
VL: DIQMTQSPSSLSASVGDRVTITCRASQSVSSYLAWYQQKPGKAPKLLIYDASNRATGVPSRFSGSGSGTDFTLTISSLQPEDFATYYCQQRSNWPWTFGQGTKVEIKR
notes: human IgG1 effector-function-minimized/kappa
B2: TL1A-0291 (antibody, human IgG1, kappa, V domains shown)
VH: B1 VH with P62Q, S63K
VL: B1 VL
notes: as for B1
B3: TL1A-0292 (antibody, human IgG1, kappa, V domains shown)
VH: B1 VH with G57V, H107F
VL: B1 VL
notes: as for B1
B4: TL1A-0303 (antibody, human IgG1, kappa, V domains shown)
VH: B1 VH with V34I, S35G
VL: B1 VL
notes: as for B1
B5: TL1A-0293 (antibody, human IgG1, kappa, V domains shown)
VH: B1 VH with G57V
VL: B1 VL
notes: as for B1
B6: TL1A-0294 (antibody, human IgG1, kappa, V domains shown)
VH: B1 VH with G57N, H107F
VL: B1 VL
notes: as for B1
B7: TL1A-0308 (antibody, human IgG1, kappa, V domains shown)
VH: B1 VH with V34I, S35G, G57N, H107F
VL: B1 VL
notes: as for B1
B8: TL1A-0047 (antibody, human IgG1, kappa, V domains shown)
VH: EVQLVESGGGLVQPGGSLRLSCAASGYDFTYYGISWVRQAPGKGLEWVAWISTYNGNTHYARMLQGRFTISRDNAKNSLYLQMNSLRAEDTAVYYCARENYYGSGAYRGGMDVWGQGTTVTVSS
VL: EIVLTQSPATLSLSPGERATLSCRASQSVSSYLAWYQQKPGQAPRLLIYDASNRATGIPARFSGSGSGTDFTLTISSLEPEDFAVYYCQQRSNWPWTFGQGTKVEIKR
notes: IgG1/kappa; VH graft on IGHV3-7*01
B9: TL1A-0055 (antibody, human IgG1, kappa, V domains shown)
VH: B8 VH
VL: B8 VL with L4M, E79Q
notes: IgG1/kappa; IGHV3-7*01 / IGKV3D-7*01 grafts
B10: TL1A-0051 (antibody, human IgG1, kappa, V domains shown)
VH: B8 VH
VL: B1 VL
notes: IgG1/kappa; IGHV3-7*01 / IGKV1-39*01 grafts
B11: TL1A-0042 (antibody, human IgG1, kappa, V domains shown)
VH: B1 VH with V34I, T56G, G57N, P62R, S63M, S77R, S100N, H107Y
VL: B1 VL
notes: TL1A-0002 heavy chain with light chain CDRs grafted on IGKV1-39*01 (DPK9)
B12: TL1A-0043 (antibody, human IgG1, kappa, V domains shown)
VH: B1 VH with V34I, T56G, G57N, P62R, S63M, S77R, S100N, H107Y
VL: B8 VL with L4M, E79Q
notes: IgG1/kappa; VL graft on IGKV3D-7*01
B13: TL1A-0045 (antibody, human IgG1, kappa, V domains shown)
VH: QVQLVQSGAEVKKPGASVKVSCKASGYDFTYYGISWVRQAPGQGLEWMGWISTYNGNTHYARMLQGRVTMTRDTSTSTVYMELSSLRSEDTAVYYCARENYYGSGAYRGGMDVWGQGTTVTVSS
VL: B8 VL
notes: IgG1/kappa; VH graft on IGHV1-46*01
B14: TL1A-0052 (antibody, human IgG1, kappa, V domains shown)
VH: B13 VH with T76I, V79A, S85R, E89D
VL: B1 VL
notes: IgG1/kappa; IGHV1-2*02 / IGKV1-39*01 grafts
B15: TL1A-0056 (antibody, human IgG1, kappa, V domains shown)
VH: B13 VH with T76I, V79A, S85R, E89D
VL: B8 VL with L4M, E79Q
notes: IgG1/kappa; IGHV1-2*02 / IGKV3D-7*01 grafts
B16: TL1A-0049 (antibody, human IgG1, kappa, V domains shown)
VH: B13 VH
VL: B1 VL
notes: IgG1/kappa; IGHV1-46*01 / IGKV1-39*01 grafts
B17: TL1A-0048 (antibody, human IgG1, kappa, V domains shown)
VH: B13 VH with T76I, V79A, S85R, E89D
VL: B8 VL
notes: IgG1/kappa; VH graft on IGHV1-2*02
B18: TL1A-0053 (antibody, human IgG1, kappa, V domains shown)
VH: B13 VH
VL: B8 VL with L4M, E79Q
notes: IgG1/kappa; IGHV1-46*01 / IGKV3D-7*01 grafts

Target: T1, recombinant human TL1A
Test: cell-based or functional assay

B1 was tested. Which “Whole blood IFNγ assay IC50” value did it give?
The value was 0.799 nM.

What about the “Whole blood IFNγ assay, Bioactivity relative to TL1A-0002” value of the same binder?
The value was 1 fold.

Which “Whole blood IFNγ assay IC50” value does the source give for B2 here?
The value was 0.929 nM.

And the “Whole blood IFNγ assay, Bioactivity relative to TL1A-0002” value?
Its value is 1.1 fold.

Which “TF-1 NF-κB reporter cell bioassay IC50” value does the source give for B3 here?
Its value is 77.9 nM.

And the “TF-1 NF-κB reporter cell bioassay, Bioactivity relative to TL1A-0002” value?
Its value is 2.2 fold.

And the “Whole blood IFNγ assay IC50” value?
The value was 0.95 nM.

What about the “Whole blood IFNγ assay, Bioactivity relative to TL1A-0002” value of the same binder?
The value was 1.1 fold.

Which results are given for B4?
TF-1 NF-κB reporter cell bioassay IC50: 49.4 nM; TF-1 NF-κB reporter cell bioassay, Bioactivity relative to TL1A-0002: 1.4 fold; Whole blood IFNγ assay IC50: 1.23 nM; Whole blood IFNγ assay, Bioactivity relative to TL1A-0002: 1.5 fold

B5 was tested. Which “Whole blood IFNγ assay IC50” value did it give?
The value was 0.986 nM.

And the “Whole blood IFNγ assay, Bioactivity relative to TL1A-0002” value?
The value was 1.2 fold.

B6 was tested. Which “TF-1 NF-κB reporter cell bioassay IC50” value did it give?
The value was 56.5 nM.

What about the “TF-1 NF-κB reporter cell bioassay, Bioactivity relative to TL1A-0002” value of the same binder?
The value was 1.6 fold.

What about the “Whole blood IFNγ assay IC50” value of the same binder?
The value was 0.942 nM.

What about the “Whole blood IFNγ assay, Bioactivity relative to TL1A-0002” value of the same binder?
The value was 1.1 fold.

Which “TF-1 NF-κB reporter cell bioassay IC50” value does the source give for B7 here?
The value was 43 nM.

What about the “TF-1 NF-κB reporter cell bioassay, Bioactivity relative to TL1A-0002” value of the same binder?
Its value is 1.2 fold.

What about the “Whole blood IFNγ assay IC50” value of the same binder?
Its value is 0.81 nM.

What about the “Whole blood IFNγ assay, Bioactivity relative to TL1A-0002” value of the same binder?
The value was 1 fold.

Target: T2, recombinant human TL1A
Test: competition ELISA vs bio-TL1A-0002
Procedure: (§1) For this competition ELISA assay procedure, 96-well high binding plates (Corning, product number 3590) were coated with 1 μg/mL recombinant TL1A in 100 μL/well in Phospate Buffered Saline (PBS) overnight at 4° C. Plates were then blocked in PBS+0.02% casein solution and washed with PBS+0.05% Tween-20 following standard ELISA protocol. […] Plates were washed with PBS+0.05% Tween-20 following standard ELISA protocol, and Streptavidin-HRP (Southern Biotech, product number 7100-05) diluted to 1:10,000 in assay buffer was added to plates and incubated for 25-30 minutes at room temperature. Next, the plates were washed with PBS+0.05% Tween-20 following standard ELISA protocol, and then TMB substrate (BioFX Laboratories, catalog number TMBW-0100-01) was added to plates. Reactions were stopped after approximately 5 minutes by adding 0.18 M ortho-phosphoric acid to each well and absorbance was read at 450 nm.

Which “Bioactivity relative to TL1A-0002” value does the source give for B8 here?
The value was 1.2 fold.

What about the IC50 of the same binder?
The IC50 was 5.3 nM.

B9 was tested. Which “Bioactivity relative to TL1A-0002” value did it give?
Its value is 1 fold.

And the IC50?
Its IC50 is 4.4 nM.

For B10, which “Bioactivity relative to TL1A-0002” value is on record?
Its value is 1 fold.

What about the IC50 of the same binder?
Its IC50 is 4.5 nM.

With B11 as the binder, how does the “Bioactivity relative to TL1A-0002” value read?
The value was 0.9 fold.

And the IC50?
The IC50 was 4.2 nM.

How did the “Bioactivity relative to TL1A-0002” value turn out when B12 was run?
The value was 0.9 fold.

What about the IC50 of the same binder?
The IC50 was 3.9 nM.

With B13 as the binder, how does the “Bioactivity relative to TL1A-0002” value read?
The value was 1.2 fold.

What about the IC50 of the same binder?
The IC50 was 5.5 nM.

What does the source list for B14?
Bioactivity relative to TL1A-0002: 0.8 fold; IC50: 3.5 nM

How did the “Bioactivity relative to TL1A-0002” value turn out when B15 was run?
The value was 0.8 fold.

And the IC50?
The IC50 was 3.8 nM.

What does the source list for B16?
Bioactivity relative to TL1A-0002: 1.1 fold; IC50: 4.9 nM

Which results are given for B17?
Bioactivity relative to TL1A-0002: 0.9 fold; IC50: 4.1 nM

Which results are given for B18?
Bioactivity relative to TL1A-0002: 1 fold; IC50: 4.5 nM

Target: T1, recombinant human TL1A
Test: competition ELISA, coated TL1A, competitor bio-TL1A-0002
Procedure: as §1

With B1 as the binder, how does the “Bioactivity relative to TL1A-0002” value read?
The value was 1.6 fold.

What about the IC50 of the same binder?
The IC50 was 7.9 nM.

How did the “Bioactivity relative to TL1A-0002” value turn out when B2 was run?
The value was 1.8 fold.

And the IC50?
Its IC50 is 9 nM.

How did the “Bioactivity relative to TL1A-0002” value turn out when B3 was run?
Its value is 1.9 fold.

What about the IC50 of the same binder?
The IC50 was 9.6 nM.

How did the “Bioactivity relative to TL1A-0002” value turn out when B4 was run?
The value was 3 fold.

And the IC50?
Its IC50 is 15 nM.

How did the “Bioactivity relative to TL1A-0002” value turn out when B5 was run?
Its value is 1.9 fold.

What about the IC50 of the same binder?
The IC50 was 9.7 nM.

With B6 as the binder, how does the “Bioactivity relative to TL1A-0002” value read?
Its value is 1.6 fold.

And the IC50?
The IC50 was 8 nM.

Which results are given for B7?
Bioactivity relative to TL1A-0002: 2.8 fold; IC50: 14.2 nM
